Data set [1] has as its system VWF-052 (VWF D′D3-Fc with non-cleavable 48 amino acid long GS linker).
The test system of data set [2] is VWF-055 (VWF D′D3-Fc with 34 amino acid long little a2 linker).
Sequence of VWF-055 (VWF D′D3-Fc with 34 amino acid long little a2 linker) (chain, as listed by the source): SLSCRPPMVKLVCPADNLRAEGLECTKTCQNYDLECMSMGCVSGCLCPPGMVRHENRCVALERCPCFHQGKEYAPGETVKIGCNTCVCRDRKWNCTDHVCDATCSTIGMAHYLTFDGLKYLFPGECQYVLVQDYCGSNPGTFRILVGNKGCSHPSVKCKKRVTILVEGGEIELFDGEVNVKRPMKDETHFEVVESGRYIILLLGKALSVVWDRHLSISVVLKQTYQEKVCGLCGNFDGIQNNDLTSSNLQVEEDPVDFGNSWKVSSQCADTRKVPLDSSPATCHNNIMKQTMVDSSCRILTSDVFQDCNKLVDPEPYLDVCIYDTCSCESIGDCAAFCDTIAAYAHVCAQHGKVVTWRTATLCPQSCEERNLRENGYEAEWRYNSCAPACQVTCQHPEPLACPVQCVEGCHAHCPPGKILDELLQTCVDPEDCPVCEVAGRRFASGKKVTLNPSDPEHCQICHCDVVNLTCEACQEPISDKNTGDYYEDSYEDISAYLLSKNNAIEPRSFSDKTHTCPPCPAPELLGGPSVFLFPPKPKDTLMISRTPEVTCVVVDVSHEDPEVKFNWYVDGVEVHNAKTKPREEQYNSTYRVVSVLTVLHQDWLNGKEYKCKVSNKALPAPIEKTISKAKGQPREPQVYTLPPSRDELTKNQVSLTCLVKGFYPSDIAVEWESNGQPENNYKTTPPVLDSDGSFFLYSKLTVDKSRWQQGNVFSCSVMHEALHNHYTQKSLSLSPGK

Sequence of VWF-052 (VWF D′D3-Fc with non-cleavable 48 amino acid long GS linker) (chain, as listed by the source): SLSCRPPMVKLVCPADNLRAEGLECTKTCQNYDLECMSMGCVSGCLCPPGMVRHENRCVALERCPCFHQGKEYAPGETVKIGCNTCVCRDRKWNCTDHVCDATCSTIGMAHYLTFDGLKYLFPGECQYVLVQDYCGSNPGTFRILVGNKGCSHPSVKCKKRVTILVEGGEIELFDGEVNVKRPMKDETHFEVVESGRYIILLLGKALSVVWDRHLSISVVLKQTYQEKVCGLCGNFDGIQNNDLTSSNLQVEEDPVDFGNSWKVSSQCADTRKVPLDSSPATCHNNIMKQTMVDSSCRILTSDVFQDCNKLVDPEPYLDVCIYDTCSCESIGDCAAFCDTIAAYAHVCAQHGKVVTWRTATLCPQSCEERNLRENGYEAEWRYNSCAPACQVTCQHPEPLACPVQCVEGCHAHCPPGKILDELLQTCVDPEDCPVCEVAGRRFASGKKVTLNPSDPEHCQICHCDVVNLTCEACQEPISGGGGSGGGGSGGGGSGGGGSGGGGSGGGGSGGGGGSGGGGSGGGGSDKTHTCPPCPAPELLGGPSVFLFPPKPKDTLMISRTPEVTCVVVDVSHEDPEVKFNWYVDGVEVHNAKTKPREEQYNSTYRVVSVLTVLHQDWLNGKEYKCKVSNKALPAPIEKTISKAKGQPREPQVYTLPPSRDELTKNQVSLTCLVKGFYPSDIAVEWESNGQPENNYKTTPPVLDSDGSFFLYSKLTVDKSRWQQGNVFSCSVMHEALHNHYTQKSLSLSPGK

Consider human alpha-thrombin, for which the “thrombin cleavage (Biacore, release of D′D3 from captured construct)” value is on record as “as expected is not cleaved by thrombin” in data set [1] and “displayed similar thrombin cleavage as VWF-039 construct” in data set [2].
